T1: human PRLR on HEK293/hPRLR cells (Homo sapiens, UniProt P16471)
T1 construct: HA; expressed in transfected cells; host or cells: HEK293
T1 sequence (P16471 25-622): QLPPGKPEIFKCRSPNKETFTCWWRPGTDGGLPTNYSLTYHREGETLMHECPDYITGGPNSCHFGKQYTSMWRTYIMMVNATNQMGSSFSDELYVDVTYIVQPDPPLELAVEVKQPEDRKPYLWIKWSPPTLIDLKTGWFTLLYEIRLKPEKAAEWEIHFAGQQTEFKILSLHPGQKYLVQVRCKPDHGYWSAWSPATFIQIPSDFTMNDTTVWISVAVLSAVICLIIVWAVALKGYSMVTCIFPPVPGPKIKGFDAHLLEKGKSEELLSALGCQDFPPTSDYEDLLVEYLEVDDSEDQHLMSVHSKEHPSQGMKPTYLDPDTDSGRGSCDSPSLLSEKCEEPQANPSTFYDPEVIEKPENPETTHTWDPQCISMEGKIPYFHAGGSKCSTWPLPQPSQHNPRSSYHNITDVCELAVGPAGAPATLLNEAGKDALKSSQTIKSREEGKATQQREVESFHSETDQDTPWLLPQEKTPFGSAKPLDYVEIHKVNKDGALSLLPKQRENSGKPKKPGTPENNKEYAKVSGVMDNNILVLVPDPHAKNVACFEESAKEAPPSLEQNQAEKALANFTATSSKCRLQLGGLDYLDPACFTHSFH

T2: mouse PRLR on HEK293/mPRLR cells (Mus musculus, UniProt Q08501)
T2 construct: HA; expressed in transfected cells; host or cells: HEK293
T2 sequence (Q08501 20-608): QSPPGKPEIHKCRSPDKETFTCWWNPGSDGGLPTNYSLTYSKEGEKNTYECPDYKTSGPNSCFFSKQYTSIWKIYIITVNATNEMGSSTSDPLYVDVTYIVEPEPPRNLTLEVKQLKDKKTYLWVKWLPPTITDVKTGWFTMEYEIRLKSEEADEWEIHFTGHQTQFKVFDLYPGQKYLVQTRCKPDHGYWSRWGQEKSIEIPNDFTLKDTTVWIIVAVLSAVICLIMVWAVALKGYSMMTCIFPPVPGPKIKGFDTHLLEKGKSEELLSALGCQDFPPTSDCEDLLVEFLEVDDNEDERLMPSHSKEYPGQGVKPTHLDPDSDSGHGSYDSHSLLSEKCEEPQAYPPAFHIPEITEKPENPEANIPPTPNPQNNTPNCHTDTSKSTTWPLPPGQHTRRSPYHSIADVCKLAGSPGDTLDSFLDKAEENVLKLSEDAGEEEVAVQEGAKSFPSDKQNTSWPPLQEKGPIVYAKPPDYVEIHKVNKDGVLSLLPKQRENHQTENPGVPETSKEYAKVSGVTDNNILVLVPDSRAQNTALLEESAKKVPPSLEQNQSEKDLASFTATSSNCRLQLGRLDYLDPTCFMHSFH

T3: monkey PRLR on HEK293/mfPRLR cells (Macaca fascicularis, UniProt A0A2K5WXK1)
T3 construct: HA; expressed in transfected cells; host or cells: HEK293
T3 sequence (A0A2K5WXK1 25-619): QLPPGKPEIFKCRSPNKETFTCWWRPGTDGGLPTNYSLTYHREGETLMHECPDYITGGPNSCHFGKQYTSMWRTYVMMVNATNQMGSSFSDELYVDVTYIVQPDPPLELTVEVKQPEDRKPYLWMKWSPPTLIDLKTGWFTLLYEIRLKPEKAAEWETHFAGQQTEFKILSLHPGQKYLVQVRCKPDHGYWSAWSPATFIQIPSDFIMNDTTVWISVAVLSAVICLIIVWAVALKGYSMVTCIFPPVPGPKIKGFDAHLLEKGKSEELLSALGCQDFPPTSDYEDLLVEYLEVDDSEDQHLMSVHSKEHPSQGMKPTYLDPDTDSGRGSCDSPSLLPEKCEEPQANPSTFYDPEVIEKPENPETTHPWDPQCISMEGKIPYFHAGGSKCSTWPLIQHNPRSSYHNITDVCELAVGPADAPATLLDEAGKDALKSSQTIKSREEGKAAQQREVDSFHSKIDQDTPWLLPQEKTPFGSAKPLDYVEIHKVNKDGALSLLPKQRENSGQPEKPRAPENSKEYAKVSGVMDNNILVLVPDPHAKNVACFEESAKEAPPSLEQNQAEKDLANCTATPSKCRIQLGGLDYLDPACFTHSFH

T4: native PRLR expressing T47D cells (Homo sapiens, UniProt P16471)
T4 construct: a native PRLR expressing cell line (T47D); endogenous in cells; host or cells: T47D
T4 sequence (P16471 25-622): T1 sequence (P16471 25-622)

B1: H1H6790P: fully human anti-PRLR antibody, human IgG1 Fc; HCVR/LCVR SEQ ID NOs 114/122 (antibody, V domains shown)
VH: EVQLVESGGGLVQPGGSLRLSCAASGFTFSSYAMTWVRQAPGKGLEWVSAITGSVGNTYYADSVKGRFTISRDNSKNTLYLQMNSLGAEDTAEYYCAKGAGMTTNWYLDLWGRGTLVTVSS
VL: DIVMTQSPDSLAVSLGARATINCKSSQSVLYSSNNQNYLTWYQQKPGQPPKLLIKWASTRESGVPDRFSGSGSGTDFTLTISSLQAEDVAVYYCQQYASSPYTFGQGTKLEIK
B2: H1H6793P: fully human anti-PRLR antibody, human IgG1 Fc; HCVR/LCVR SEQ ID NOs 146/154 (antibody, V domains shown)
VH: EVQLVESGGGLVQPGGSLRLSCAASGFSFSIYAMSWFRQAPGKGLEWVSAINGRGDGTHYADSVKGRFTISRDNSKTTLYLQMSSLRAEDTAVYYCAKPVMSTNGFDIWGQGTMVTVSS
VL: DIQMTQSPSTLSASVGDRVTITCRASQSISSWLAWYQLKPGKAPKLLIYKASNLESGVPSRFSGSGSGTEFTLTISSLQPDDFATYYCQQYNIYWTFGQGTKVEIK
B3: H1H6792P: fully human anti-PRLR antibody, human IgG1 Fc; HCVR/LCVR SEQ ID NOs 130/138 (antibody, V domains shown)
VH: EVQLVESGGGLVQPGRSLRLSCAASGFTLDDHAVHWVRQAPGKGLEWVSGISWNSVYIDYADSVKGRFTIFRDNAKNSLYLQMNSLRAEDTAFYYCARDIEGARDYWGQGTLVTVSS
VL: DIQMTQSPSSLSASVGDRVTITCRASQGIRNDLGWYQQKPGKAPKRLIYAASSLQSGVPSRFSGSGYGTEFTLTISSLQPEDFAPYYCLQHNSYPLTFGGGTKVEIK

Tested on: HEK293 parental cells
Experiment: FACS cell surface binding
Design: species or system human
Conditions: not given
Method: (§1) The ability of anti-PRLR antibodies to selectively bind PRLR expressing cell lines was next determined. Human, monkey Macaca fascicularis, and mouse PRLR constructs with an HA tag were stably introduced into HEK293 cells via Lipofectamine 2000-mediated transfection methodology. Transfectants (HEK293/hPRLR, HEK293/mfPRLR and HEK293/mPRLR) were selected for at least 2 weeks in complete growth media plus G418.
(§2) Cell surface expression of PRLR on 293/hPRLR cells was assessed via FACS analysis. Briefly, 1×10^5 cells were incubated with 10 μg/ml of Control antibody I, or an isotype control for 30 min on ice in antibody dilution buffer. Following two washes with antibody dilution buffer, cells were incubated with 10 μg/ml of PE conjugated anti-human secondary antibodies for 30 min on ice. Following two additional washes, samples were run on a Hypercyt® cytometer and analyzed in ForeCyt™ (IntelliCyt, Albuquerque, N. Mex.). The mean fluorescence intensities (MFI) were expressed as fold change above isotype control levels (background). FACS binding confirmed that Control I selectively bound to 293/hPRLR expressing cells with MFIs that were 30 fold above background (isotype ctrl) levels and less than 2 fold binding on parental cells.
(§3) Next, the anti-PRLR antibodies were tested via FACS for selective binding to the engineered overexpressing PRLR HEK293 cell lines, as well as to non-expressing HEK293 cells and a native PRLR expressing cell line (T47D).

Row | Molecule | FACS Cell Binding [Fold Above Background]
1 | B1 | 1
2 | B2 | 2
3 | B3 | 1

Target: T1, human PRLR on HEK293/hPRLR cells
Experiment: FACS cell surface binding
Conditions: not given
Method: as §1, §2, §3

Row | FACS Cell Binding [Fold Above Background] | Molecule
4 | 37 | B1
5 | 2 | B2
6 | 37 | B3

Target: T2, mouse PRLR on HEK293/mPRLR cells
Experiment: FACS cell surface binding
Conditions: not given
Method: as §1, §2, §3

Row | FACS Cell Binding [Fold Above Background] | Molecule
7 | 1 | B1
8 | 2 | B2
9 | 3 | B3

Target: T3, monkey PRLR on HEK293/mfPRLR cells
Experiment: FACS cell surface binding
Conditions: not given
Method: as §1, §2, §3

Row | FACS Cell Binding [Fold Above Background] | Molecule
10 | 24 | B1
11 | 32 | B2
12 | 28 | B3

Target: T4, native PRLR expressing T47D cells
Experiment: FACS cell surface binding
Conditions: not given
Method: as §2, §3

Row | FACS Cell Binding [Fold Above Background] | Molecule
13 | 34 | B1
14 | 43 | B2
15 | 37 | B3

Tested on: Macaca fascicularis PRLR (mfPRLR.mmh; SEQ ID NO:403)
Experiment: Surface plasmon resonance (Biacore T200), antibody-capture format
Type: binding
Conditions: 25° C., analyte mfPRLR.mmh
Method: (§4) Antibodies, expressed as human IgG1 Fc (i.e., “H1H” designations), were captured onto an anti-human Fc sensor surface (mAb-capture format), and soluble monomeric (hPRLR.mmh; SEQ ID NO:401, or Macaca fascicularis (mf) PRLR.mmh; SEQ ID NO:403) or dimeric (hPRLR.mFc; SEQ ID NO:402) PRLR protein was injected over the sensor surface. Measurements were conducted on a T200 Biacore instrument. Kinetic association (ka) and dissociation (kd) rate constants were determined by processing and fitting the data to a 1:1 binding model using Scrubber 2.0 curve fitting software.

Chain of Macaca fascicularis PRLR (mfPRLR.mmh; SEQ ID NO:403) (as listed by the source): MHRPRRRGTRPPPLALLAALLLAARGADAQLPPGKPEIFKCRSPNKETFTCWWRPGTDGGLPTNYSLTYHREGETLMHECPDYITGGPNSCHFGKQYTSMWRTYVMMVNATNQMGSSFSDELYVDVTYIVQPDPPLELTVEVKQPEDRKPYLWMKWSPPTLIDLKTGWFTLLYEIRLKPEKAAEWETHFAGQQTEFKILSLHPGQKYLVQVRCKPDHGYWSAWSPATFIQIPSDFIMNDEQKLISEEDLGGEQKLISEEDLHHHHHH

Row | kd [s⁻¹] | Molecule | ka [M/s]
16 | 0.000793 | B1 | 389000
17 | 0.000393 | B2 | 177000
18 | 0.000983 | B3 | 236000

Same assay, conditions: 37° C., analyte mfPRLR.mmh

Row | kd [s⁻¹] | Molecule | ka [M/s]
19 | 0.00321 | B1 | 615000
20 | 0.00107 | B2 | 233000
21 | 0.00286 | B3 | 305000

Target: T5, monomeric human PRLR (hPRLR.mmh; SEQ ID NO:401) (Homo sapiens, UniProt P16471)
T5 construct: soluble monomeric (hPRLR.mmh); mmh (myc-myc-hexahistidine) (C)
Experiment: as above
Type: binding
Conditions: 25° C., analyte hPRLR.mmh
Method: as §4

T5 sequence (P16471 with tags, fused parts or gaps): as the sequence (as listed by the source) above, with V105I, T139A, M154I, T187I, I236T counted along it

Row | ka [M/s] | kd [s⁻¹] | Molecule
22 | 565000 | 0.000799 | B1
23 | 235000 | 0.000332 | B2
24 | 324000 | 0.000794 | B3

Same assay, conditions: 37° C., analyte hPRLR.mmh

Row | ka [M/s] | kd [s⁻¹] | Molecule
25 | 940000 | 0.00329 | B1
26 | 339000 | 0.00102 | B2
27 | 435000 | 0.00229 | B3

Target: T6, dimeric human PRLR (hPRLR.mFc; SEQ ID NO:402) (Homo sapiens, UniProt P16471)
T6 construct: dimeric (hPRLR.mFc)
Experiment: as above
Type: binding
Conditions: 25° C., analyte hPRLR.mFc
Method: as §4

T6 sequence (P16471 with tags, fused parts or gaps): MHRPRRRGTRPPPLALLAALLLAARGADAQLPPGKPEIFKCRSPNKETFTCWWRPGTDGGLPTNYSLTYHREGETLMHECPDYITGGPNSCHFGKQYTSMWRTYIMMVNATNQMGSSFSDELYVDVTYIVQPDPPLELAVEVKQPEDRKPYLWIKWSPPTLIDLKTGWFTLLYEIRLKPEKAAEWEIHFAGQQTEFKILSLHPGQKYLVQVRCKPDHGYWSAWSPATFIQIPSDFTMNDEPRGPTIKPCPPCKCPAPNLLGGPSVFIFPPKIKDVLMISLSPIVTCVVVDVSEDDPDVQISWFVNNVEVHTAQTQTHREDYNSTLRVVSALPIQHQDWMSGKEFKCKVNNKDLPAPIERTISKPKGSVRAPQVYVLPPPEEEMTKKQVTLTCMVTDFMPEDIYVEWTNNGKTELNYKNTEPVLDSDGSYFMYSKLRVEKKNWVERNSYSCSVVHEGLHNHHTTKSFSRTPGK

Row | ka [M/s] | kd [s⁻¹] | Molecule
28 | 542000 | 0.000104 | B1
29 | 229000 | 7.57e-05 | B2
30 | 303000 | 9.48e-05 | B3

Same assay, conditions: 37° C., analyte hPRLR.mFc

Row | ka [M/s] | kd [s⁻¹] | Molecule
31 | 646000 | 0.000198 | B1
32 | 410000 | 0.000142 | B2
33 | 499000 | 0.000176 | B3
